# Measurements as given in patent US20110177578, “APTAMER AGAINST IL-17 AND USE THEREOF” (The University of Tokyo, published 2011).
# Numbering of substitutions follows the chain as printed.
# T1: IL-17 (IL-17A) (Homo sapiens, UniProt Q16552 Q16552:24-155)
# T1 sequence: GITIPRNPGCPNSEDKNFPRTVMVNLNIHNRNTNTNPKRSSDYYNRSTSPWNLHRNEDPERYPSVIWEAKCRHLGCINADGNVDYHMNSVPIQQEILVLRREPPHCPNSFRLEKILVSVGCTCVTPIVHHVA
# T2: IL-17F (Homo sapiens, UniProt Q96PD4 Q96PD4:31-163)
# T2 sequence: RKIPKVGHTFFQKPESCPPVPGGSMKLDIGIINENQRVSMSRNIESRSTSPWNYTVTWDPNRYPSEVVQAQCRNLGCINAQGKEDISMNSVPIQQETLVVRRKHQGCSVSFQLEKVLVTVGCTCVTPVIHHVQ
# B1: SEQ 1 (Apt1) (ssRNA)
# RNA: GGGAGCAGGAGAGAGGUCAGAUGGGCAGCAGAGGAUAGCGAAGUCAUUGAGCGCCUAUGCGUGCUAGUGUGA
# modifications: 2'-F pyrimidines
# B2: SEQ 37 (ssRNA)
# RNA: CAGAUGGGCAGCAGAGGAUAGCGAAGUCAUUGAGCGCCUAUGCGUGCUAGUGUG
# modifications: 2'-F pyrimidines
# B3: SEQ 42 (ssRNA)
# RNA: GUGCACAUGGGAUAGCGAAGUCAUUGAGCGCCUAUGCGUGC
# modifications: 2'-F pyrimidines
# B4: SEQ 40 (ssRNA)
# RNA: GGAUAGCGAAGUCAUUGAGCGCC
# modifications: 2'-F pyrimidines
# B5: SEQ 39 (ssRNA)
# RNA: GCAGAGGAUAGCGAAGUCAUUGAGCGCCUAUGC
# modifications: 2'-F pyrimidines
# B6: SEQ 41 (ssRNA)
# RNA: GGGGAUAGCGAAGUCAUUGAGCGCCCC
# modifications: 2'-F pyrimidines
# B7: SEQ 38 (ssRNA)
# RNA: GCAGCAGAGGAUAGCGAAGUCAUUGAGCGCCUAUGCGUGC
# modifications: 2'-F pyrimidines
# B8: SEQ 44 (ssRNA)
# RNA: GGUCUAGCCGGAGGAGUCAGUAAUCGGUAGACC
# modifications: 2'-F pyrimidines
# B9: SEQ 43 (ssRNA)
# RNA: AGAGGUCAGAUGGUCUAGCCGGAGGAGUCAGUAAUCGGUAGACCUAUGCGUG
# modifications: 2'-F pyrimidines
# B10: SEQ 48 (ssRNA)
# RNA: GGAUAGCGAAGACAUUGAGCGCC
# modifications: 2'-F pyrimidines; 2'-OMe at a12
# B11: SEQ 40-2 (ssRNA)
# RNA: GGAUAGCGAAGUCAUUGAGCGCC
# modifications: 2'-F pyrimidines; 2'-OMe at a3
# B12: SEQ 40-3 (ssRNA)
# RNA: GGAUAGCGAAGUCAUUGAGCGCC
# modifications: 2'-F pyrimidines except c7; 2'-OMe at c7
# B13: SEQ 46 (ssRNA)
# RNA: GGAUAGCGAAGUCAUUGAGCACC
# modifications: 2'-F pyrimidines
# B14: SEQ 40-4 (ssRNA)
# RNA: GGAUAGCGAAGUCAUUGAGCGCC
# modifications: 2'-F pyrimidines; 2'-OMe at g19
# B15: SEQ 47 (ssRNA)
# RNA: GGAUAGAGAAGUCAUUGAGCGCC
# modifications: 2'-F pyrimidines; 2'-OMe at a7
# B16: SEQ 45 (ssRNA)
# RNA: GGAUAGCGAAGUCAUCGAGCGCC
# modifications: 2'-F pyrimidines
# B17: SEQ 33 (ssRNA)
# RNA: GGGAGCAGGAGAGAGGUCAGAUGGAGGAGCCAGUGAUCGUUGACCUCAAUGCACCUAUGCGUGCUAGUGUGA
# modifications: 2'-F pyrimidines
# B18: SEQ 34 (ssRNA)
# RNA: B17 RNA with C30A, U46C, C47A, A48C, A49C, U50G, C52G, A53U
# modifications: 2'-F pyrimidines
# B19: SEQ 35 (ssRNA)
# RNA: B17 RNA with C30G, G35A, C45U, U46G, C47G, A48U, U50A, G51A, A53C
# modifications: 2'-F pyrimidines
# B20: SEQ 36 (ssRNA)
# RNA: GGGAGCAGGAGAGAGGUCAGAUGUAUAGCGAAGUCAUUGAGCGACAAAGCCGGCCUAUGCGUGCUAGUGUGA
# modifications: 2'-F pyrimidines
# B21: SEQ 6 (ssRNA)
# RNA: GGGAGCAGGAGAGAGGUCAGAUGGUGAUGCAUAGGAGUGGAGUCAGAUAUAGCCCUAUGCGUGCUAGUGUGA
# modifications: 2'-F pyrimidines
# B22: SEQ 31 (ssRNA)
# RNA: GGGAGCAGGAGAGAGGUCAGAUGGAAGUGGAGUCAGAUAUAGCAAUAUUAUGACCUAUGCGUGCUAGUGUGA
# modifications: 2'-F pyrimidines
# B23: SEQ 3 (ssRNA)
# RNA: GGGAGCAGGAGAGAGGUCAGAUGUGUAAGGUCGGAAGUCAUGAACGGCCCGGACCUAUGCGUGCUAGUGUGA
# modifications: 2'-F pyrimidines
# B24: SEQ 30 (ssRNA)
# RNA: GGGAGCAGGAGAGAGGUCAGAUGGUCUAGCCGGAGGAGUCAGUAAUCGGUAGACCUAUGCGUGCUAGUGUGA
# modifications: 2'-F pyrimidines
# B25: SEQ 4 (ssRNA)
# RNA: GGGAGCAGGAGAGAGGUCAGAUGCUAUAGCGAAGUCAUUGAGCGAGACAUAGGCCUAUGCGUGCUAGUGUGA
# modifications: 2'-F pyrimidines
# B26: SEQ 29 (ssRNA)
# RNA: B25 RNA with U25G, A45C, A47U, C48G, A49U, U50C, A51C, G52A, G53A
# modifications: 2'-F pyrimidines
# B27: SEQ 32 (ssRNA)
# RNA: B1 RNA with A30G, A37G, A50G, A66G, U70G, G71A, A72G
# modifications: 2'-F pyrimidines
# B28: SEQ 5 (ssRNA)
# RNA: B1 RNA with G24A, A27G, G28C, G31U, A35G, C39A, U44C, G51U, G53A
# modifications: 2'-F pyrimidines
# B29: SEQ 2 (ssRNA)
# RNA: B1 RNA with G25U, C26G, A27C, G28A, G31U, A32G
# modifications: 2'-F pyrimidines
# Target: T1, IL-17 (IL-17A)
# Assay: SPR; 3' A16-tailed RNA on dT16 SA chip; solution A pH 7.6, Ca/Mg, 0.1 mg/mL tRNA
# Conditions: tags: Peprotech; chain copies: 2
# Description: (§1) The binding activities for IL-17 of the nucleic acids shown by SEQ ID NOS:1-6 and 29-36 were evaluated by the surface plasmon resonance method. The measurements were taken using BIAcore 2000. The SA chip was used as the sensor chip, which had streptavidin immobilized thereon. Bound thereto was about 600 RU of a 16-nucleotide Poly dT with biotin bound to the 5′ end thereof. […] 20 μl, of human IL-17 for analyte, prepared at 0.5 was injected, with the addition of 0.1 mg/mL tRNA to lessen nonspecific adsorption. Solution A was used as a running buffer. […] Here, 30N refers to the nucleic acid pool used for the first round of SELEX, comprising a 30-nucleotide random sequence. As an example, a sensorgram showing a status of the binding of the aptamer shown by SEQ ID NO:1 (Apt1) and human IL-17 is shown in FIG. 7. From the above, it was shown that the nucleic acids shown by SEQ ID NOS:1-6 and 29-36 are aptamers that bind to IL-17.
row,Binder,binding result
1,B1,binds

# Target: T1, IL-17 (IL-17A)
# Assay: SPR; same as Example 1
# Conditions: tags: Peprotech; chain copies: 2
row,Binder,binding result
1,B2,binds
2,B3,binds
3,B4,binds
4,B5,binds
5,B6,binds
6,B7,binds
7,B8,binds
8,B9,binds

# Target: T1, IL-17 (IL-17A)
# Assay: SPR
# Conditions: tags: Peprotech; chain copies: 2
row,Binder,binding result
1,B10,binds
2,B11,binds
3,B12,binds
4,B13,binds
5,B14,binds
6,B15,binds
7,B16,binds

# Target: T2, IL-17F
# Assay: SPR; tRNA added
# Conditions: tags: R&D Systems 1335-INS/CF; chain copies: 2
# Description: as §1
# Whether the IL-17 aptamers shown by SEQ ID NOS:1-6 and 29-36 bind to IL-17F, which belongs to the same family, was determined by the surface plasmon resonance method. The amino acid sequence homology between IL-17 and IL-17F is 50%. The experiment was performed using IL-17F produced by R&D Company (1335-INS/CF), while in a state wherein tRNA was added to lessen nonspecific adsorption as described above.
row,Binder,binding result
1,B17,no binding
2,B18,no binding
3,B19,no binding
4,B20,no binding
5,B21,no binding
6,B22,no binding
7,B23,no binding
8,B24,no binding
9,B25,no binding
10,B26,no binding
11,B1,no binding
12,B27,no binding
13,B28,no binding
14,B29,no binding

# Target: T1, IL-17 (IL-17A)
# Assay: SPR; solution A, tRNA
# Conditions: tags: Peprotech; chain copies: 2
# Description: as §1
row,Binder,binding result
1,B17,binds
2,B18,binds
3,B19,binds
4,B20,binds
5,B21,binds
6,B22,binds
7,B23,binds
8,B24,binds
9,B25,binds
10,B26,binds
11,B27,binds
12,B28,binds
13,B29,binds
